Measurements taken from paper PMC8537452.

Legend:
[1] = biological target: long carboxyl terminus (CTL) of rat Cav1.3L (rat)
[2] = biological target: long carboxyl terminus (CTL) of rat Cav1.3L (rat); remark: listed apart in the source
[3] = biological target: long carboxyl terminus (CTL) of rat Cav1.3L (rat); remark: listed apart in the source

Chain of long carboxyl terminus (CTL) of rat Cav1.3L (rat) (P27732 1460-2155): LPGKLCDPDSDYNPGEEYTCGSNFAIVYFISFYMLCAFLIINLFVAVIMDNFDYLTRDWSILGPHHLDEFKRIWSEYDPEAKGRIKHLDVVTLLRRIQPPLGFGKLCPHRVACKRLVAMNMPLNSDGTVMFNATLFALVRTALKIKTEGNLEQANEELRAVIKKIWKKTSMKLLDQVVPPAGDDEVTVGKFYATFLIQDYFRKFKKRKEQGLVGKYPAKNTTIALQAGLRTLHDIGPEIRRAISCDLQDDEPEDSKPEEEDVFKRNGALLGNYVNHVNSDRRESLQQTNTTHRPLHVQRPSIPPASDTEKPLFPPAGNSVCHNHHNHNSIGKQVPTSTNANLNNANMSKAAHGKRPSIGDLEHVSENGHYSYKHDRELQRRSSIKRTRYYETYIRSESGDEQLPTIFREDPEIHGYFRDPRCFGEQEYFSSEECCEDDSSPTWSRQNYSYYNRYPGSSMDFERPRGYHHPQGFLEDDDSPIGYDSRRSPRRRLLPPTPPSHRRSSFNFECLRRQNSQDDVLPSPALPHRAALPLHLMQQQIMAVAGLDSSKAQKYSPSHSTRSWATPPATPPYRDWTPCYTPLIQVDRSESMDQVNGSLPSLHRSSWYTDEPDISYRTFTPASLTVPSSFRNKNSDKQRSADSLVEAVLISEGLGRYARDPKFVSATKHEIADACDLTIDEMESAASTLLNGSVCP

maximal chord conductance of Cav1.3L channels without vs. with Snapin2 in HEK-293 cells [1] [nS/pF]	average peak current amplitude at −10 mV of Cav1.3L/β3 with vs. without Snapin2 in Xenopus oocytes [2] [nA]	maximal chord conductance of Cav1.3L channels without vs. with Snapin2 in Xenopus oocytes [2] [μS]	maximal normalized chord conductance of Cav1.3L without or with Snapin1 in HEK-293 cells [3] [nS/pF]	Molecule
1.86	-2410	28.1		rat Snapin2 (natural protein)
			2.09	rat Snapin1 (natural protein) MAAAGSAAVSGAGTPVAGPTGRDLFAEGLLEFLRPAVQQLDSHVHAVRESQVELREQIDNLATELCRINEDQKVALDLDPYVKKLLNARRRVVLVNNILQNAQERLRRLNHSVAKETARRRAMLDSGVYPPGSPSK
